This note sets out measurements from patent US20250163149A1, “ANTI-RAGE ANTIBODY” (Swansea University, priority 2022, published 2025).

Broadly, the Kd is a measure of binding affinity in units of concentration. One may read the koff as a measure of how fast the partners let go of each other. Broadly, the kon is the rate constant with which the complex forms. A word on the EC50 (read off the curve): it is the concentration giving half of the maximal effect. Lower therefore signals higher potency in that assay.

For test [1], the target named is Human rRAGE, full-length RAGE recombinant protein from Merck (human) (UniProt Q15109). Put plainly: SPR, antibody amine-coupled to a CM5 chip as ligand, rRAGE protein as analyte at 0.0156-0.35 µM, 1:1 binding fit. On the technique in general: In SPR one partner is held on a chip, and binding of the other changes the refractive index at the surface.
Test [2] addresses synthetic peptide S155 of the RAGE V-domain (amino acids 39-65) (human). Put plainly: SPR, antibody amine-coupled to a CM5 chip as ligand, peptide S155 (B-Rad) as analyte at 0.25-4 µM, 1:1 binding fit.
Test [3] concerns the target T1, synthetic peptide S155 of the RAGE V-domain (amino acids 39-65) (human).
T1 construct: injected as analyte in SPR; also called RAGE synthetic peptide
T1 peptide: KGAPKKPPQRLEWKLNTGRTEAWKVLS
Put plainly: SPR (Biacore T200), antibody amine-coupled to a CM5 chip as ligand, RAGE peptide S155 (BioRad) as analyte, multi-cycle kinetics, 1:1 fit; 'No steady state.'. As to the method: This was followed by diluting the ligand with the appropriate Acetate buffer to at least 10 μg/mL. The ligand immobilization on the surface Series S Sensor Chip CM5 (29-1496-03, Cytiva) was performed using the Amine Coupling Kit (BR100050, Cytiva) containing 1-Etyhyl-3-(3-dimethylaminopropyl)-carbodiimide hydrochloride (EDC), N-Hydroxysuccinimide (NHS) and 1.0M ethanolamine-HcL PH 8.5 in accordance with the manufacturer's instructions. For each experimental run, the ligand was immobilized in flow cells 2 or 4 while flow cells 1 or 3 were left unmodified. […] Following each binding cycle, the surface was regenerated with a 30 s injection of 10 mM Glycine-HcL, pH 2.5 regeneration solution (BR-1003-56), removing the bound antibody with a contact time of 30 s, flow rate of 30 μL/min and a stabilization period of Os. Blank cycles (buffer only injection followed by regeneration step) was also performed. Data was double referenced by first subtracting responses from the reference flow cell and then subtracting the blank cycles. Data was then fitted to a 1:1 binding model using Biacore™ T200 Evaluation Software 2.0 and Biacore™ Insight Evaluation Software.
SPR analysis was subsequently used to evaluate the binding kinetics of the different murine clones to their targets (either using synthetic peptide used to produce the clones or recombinant RAGE protein (Uniprot reference: Q15109-1) Peptide S155=Original peptide from Biorad used to produce the murine clones. Human rRAGE=Full-length RAGE recombinant protein from Merck). The SPR parameters used for this analysis are described in the detailed methods.

Test [4] concerns the target T1, synthetic peptide S155 of the RAGE …. Put plainly: ELISA, BSA-conjugated peptide S155 on the plate, two-fold dilutions of antibody, HRP anti-mouse, OD 450 nm. As to the method: FIG. 2: Screening of purified anti-RAGE antibodies by enzyme linked immunosorbent assay (ELISA). BSA-conjugated synthetic peptides of RAGE protein were immobilized onto microplates and incubated with two-fold serial dilutions of antibodies.
A 96-well plate was coated with 5 μg/ml of RAGE synthetic peptides or RAGE recombinant protein diluted in phosphate-buffered saline (pH 7.4) overnight at 4° C. The solution was removed, washed with PBS-Tween (PBST) and the plate was blocked with ELISA ultrablock buffer (Biorad) for 1 h at room temperature. After blocking, the plate was washed with PBST and a range of concentrations of α-RAGE antibodies was applied to the plate for 2 h at room temperature. The plate was washed thoroughly with PBST and incubated with HRP-conjugated anti-mouse antibodies diluted 1:1000 in PBS-Tween. After washes with PBST, TMB Core+ substrate solution (Biorad) was added to each well and incubated at room temperature for 30 minutes. 0.2M H2SO4 was used as a stop solution. Absorbance at 450 nm was measured in a Biorad absorbance microplate reader.
The initial screening of the 6 murine antibody clones against RAGE was undertaken by ELISA. For this evaluation a range of 15 concentrations of each antibody clone was applied to the plate.
(In an ELISA, binding on a coated surface is turned into a signal by an enzyme label.)

In test [5] the target is synthetic peptide S155 of the RAGE V-domain (amino acids 39-65) (human). Put plainly: SPR (Biacore T200), antibody amine-coupled to a CM5 chip as ligand, RAGE peptide S155 (BioRad) as analyte, multi-cycle kinetics, 1:1 fit; 'No steady state.'.
Test [6] addresses T1, synthetic peptide S155 of the RAGE …. Put plainly: SPR (Biacore T200), antibody amine-coupled to a CM5 chip as ligand, RAGE Peptide (S155) as analyte, multi-cycle kinetics, 1:1 fit; 'No steady state.'. As to the method:
Data were then fitted to a 1:1 binding model.
For on-rate and off-rate screening, Biacore™ T200 system (Cytiva, Uppsala, Sweden) was used to perform SPR analysis with 1×HBS-EP+ buffer (0.01M Hepes, 0.15M NaCl, 0.003M ethylenediaminetetraacetic acid, and 0.05% Surfactant P20, pH 7.4) (BR100669) used as sample and running buffer. The analysis temperature at the sensor chip surface and within the compartment was set to 25° C. Firstly, pH scouting with 10 mM sodium acetate buffer 4.0 (BR-1003-49), 10 mM sodium acetate buffer 4.5 (BR-1003-50), 10 mM sodium acetate buffer 5.0 (BR-1003-51) and 10 mM sodium acetate buffer 5.5 (BR-1003-52) was performed to identify the optimal pH required for ligand (α-RAGE antibodies) immobilization. This was followed by diluting the ligand with the appropriate Acetate buffer to at least 10 μg/mL. The ligand immobilization on the surface Series S Sensor Chip CM5 (29-1496-03, Cytiva) was performed using the Amine Coupling Kit (BR100050, Cytiva) containing 1-Etyhyl-3-(3-dimethylaminopropyl)-carbodiimide hydrochloride (EDC), N-Hydroxysuccinimide (NHS) and 1.0M ethanolamine-HcL PH 8.5 in accordance with the manufacturer's instructions. For each experimental run, the ligand was immobilized in flow cells 2 or 4 while flow cells 1 or 3 were left unmodified.

The target of test [7] is RAGE (Homo sapiens, UniProt Q15109). Put plainly: Binding target blocking assay by immunofluorescence on HEC-1A cells. The conditions noted are these: then antibody at 4 μg/ml. Type of test: cell-based. Also noted: endogenous in cells; host or cells: HEC-1A (ECACC). As for the experimental part:
To proof that HA9 shares similar binding epitope as other α-RAGE antibodies, an immunofluorescence approach was used. For this purpose, 1.5×10^4 HEC1A cells/well (obtained from the European Collection of Authenticated Cell Cultures, ECACC, Public Health England, UK) were seeded in 8-well chamber slides (Ibidi) in 300 μl of stripped medium and cultured for 24 h in a humidified, 5% CO2 in air atmosphere incubator at 37° C. After culture, cells were fixed with 4% paraformaldehyde (Sigma) for 20 minutes, permeabilized with 0.1% Triton X-100 (Sigma) for 10 minutes at 4° C. and blocked with 3% BSA in PBS for 1 h. Cells were then pre-incubated with a primary antibody against RAGE at a concentration in excess (20 μg/ml in 3% BSA in PBS for 1 h) to block the specific epitope they bind, before cells were incubated with the α-RAGE antibody of interest at 4 μg/ml in 3% BSA-PBS overnight at 4° C. This was followed by 1 h incubation with Alexa-fluorophore-conjugated secondary antibodies. Cells were washed with PBS extensively between all steps, counterstained before imaging with Hoechst (Life Technologies™) and imaged using a LSM710 confocal fluorescence microscopy system (Zeiss, UK). The mean intensity of fluorescence was obtained using imageJ by measuring the integrated density per imaged field, normalised by the number of cells in the respective field and obtaining the mean from >10 fields obtained per condition. A decrease in fluorescence in the pre-blocked condition compared with the not-pre-blocked condition means both antibodies share similar epitope of binding on the same protein.

Sequence of Human rRAGE, full-length RAGE recombinant protein from Merck (human) (Q15109 23-404 limits assumed): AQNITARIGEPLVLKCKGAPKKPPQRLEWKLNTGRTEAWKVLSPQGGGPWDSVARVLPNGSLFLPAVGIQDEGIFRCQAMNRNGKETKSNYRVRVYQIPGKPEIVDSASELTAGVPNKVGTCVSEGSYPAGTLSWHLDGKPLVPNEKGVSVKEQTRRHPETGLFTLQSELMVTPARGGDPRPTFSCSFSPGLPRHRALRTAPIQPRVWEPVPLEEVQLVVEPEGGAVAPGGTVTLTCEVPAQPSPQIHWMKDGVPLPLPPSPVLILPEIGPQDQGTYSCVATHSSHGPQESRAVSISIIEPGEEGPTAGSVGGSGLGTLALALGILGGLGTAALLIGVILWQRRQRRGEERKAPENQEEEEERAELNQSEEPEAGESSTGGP
Sequence of RAGE (Q15109 23-404): as the sequence (Q15109 23-404 limits assumed) above

In the case of “α-RAGE Abcam (Abcam, ab37647) (antibody)”, in test [1], the Kd came out at 4.31 nM, the off-rate constant (koff) came out at 0.00077 s⁻¹ and the kon was determined as 180000 M⁻¹ s⁻¹. In test [2], this molecule came in with an equilibrium dissociation constant (Kd) of 54.1 nM, a koff of 4.46 s⁻¹ and an association rate constant (kon) of 8.2e+07 M⁻¹ s⁻¹.

B1: murine HA9 (mHA9) anti-RAGE monoclonal antibody (antibody, V domains shown)
VH: EVKLVETGGGLVQPGRPMKLSCVASGFTLSDHWMNWVRQSPEKGLEWVAQIRNRPYKFEKYYSDSVKGRFTISRDDSKNSVYLQMNNLRAEDMGIYYCSSYRYGLAYWGQGTLVTVST
VL: DNLLTQSPAILSVSPGERVSFSCRASQTIDTRIHWYQQRKNGSPRLLIRYISESLSGIPSRFSGSGSGTEFTLTINSVESEDIADYYCQQTESWPITFGSGTKLEIK
notes: Murine hybridoma antibody, purified on protein G; also called HA9 clone
On to B1, for which, in test [3], the Kd was 720 nM and the koff is 0.0033 s⁻¹. Moreover, the 50% effective concentration (EC50 (read off the curve)) in test [4] was about 0.01 µg/mL.

B2: murine BC3 anti-RAGE monoclonal antibody (antibody, part only; not given: Light chain variable region, V domains shown, part only)
VH: QVQLKQSGPGLVQPSQSLSITCTVSGFSLTNYGVHWVRQSPGKGLEWLGVIWTGGNTDYNAAFISRLSITKDNSKSQVFFKMNSLQANDTAIYYCARNLRGGYYGAWFAYWGQGTLVTVSA
On to B2, for which, in test [5], the dissociation constant (Kd) worked out at 890 nM, the koff was 0.00333 s⁻¹ and the kon was 3720 M⁻¹ s⁻¹.

B3: Anti-CG7 (Chimeric) (antibody, V domains shown)
VH: B2 VH
VL: DVVMTQTPLSLPVSLGDQASISCRSSQTLVHSNGNTYLHWYLQKPGQSPKLLIYKVSNRFSGVPDRFTGSGSGTDFTLKISRVEAEDLGVYFCSQSTHVPPLTFGAGTKLELK
notes: also called hCG7; chimeric CG7
As to B3, in test [6], binding was put at a Kd of 320 nM and the dissociation rate constant (koff) was 0.0095 s⁻¹.

B4: murine CG7 (mCG7) anti-RAGE monoclonal antibody (antibody, V domains shown)
VH: B2 VH
VL: B3 VL
notes: Murine hybridoma antibody
Regarding B4, in test [3], the Kd is 296 nM, the off-rate (koff) worked out at 0.00901 s⁻¹ and the on-rate (kon) was found to be 30000 M⁻¹ s⁻¹.

B5: CG7: anti-RAGE antibody clone raised against RAGE peptide aa 39-65 (antibody, V domains shown)
VH: B2 VH
VL: B3 VL
As for B5, the “staining after Abcam antibody pre-blocking” value in test [7] (Abcam antibody 20 μg/ml pre-incubation) was “did not result in a decrease”. For the same molecule, the “staining after N16 pre-blocking” value in test [7] (N16 20 μg/ml pre-incubation) is given as “unaffected”.

B6: murine BG7 anti-RAGE monoclonal antibody (antibody, V domains shown)
VH: EVKLDETGGGLVQPGRPMKLSCIASGFTLSDYWMNWVRQSPEKGLEWVAQIRNRPYNFETLYSDSVKGRFIISRDDSKNSVYLQMDNLGPDDSGIYYCSSYRYGLAYWGQGTLVTVSA
VL: DILLTQSPAILSVSPGERVSISCRASQTIDKRIHWYQQRTNGSPRLLIKYMSESISGTPSRFSGSGSGTDFTLTINSVESEDIAVYYCQQTNYWPITFGSGTKLELK
notes: Murine hybridoma antibody
In test [3], B6 showed a dissociation constant Kd of 410 nM, an off-rate (koff) of 0.02 s⁻¹ and a kon of 49000 M⁻¹ s⁻¹. Moreover, in test [4], the concentration giving a half-maximal response (EC50 (read off the curve)) is about 0.02 µg/mL.

B7: murine IG7 anti-RAGE monoclonal antibody (antibody, V domains shown)
VH: B6 VH
VL: B6 VL
notes: Same VH and VL as BG7; also called ID7
In test [3], B7 came in with a Kd of 860 nM, a koff of 0.00326 s⁻¹ and an association rate constant (kon) of 3790 M⁻¹ s⁻¹. Besides, in test [4], the “EC50 (read off the curve)” value is about 0.02 µg/mL.

B8: Anti-BG7 (Chimeric) (antibody, V domains shown)
VH: B6 VH
VL: B6 VL
notes: also called hBG7; chimeric BG7
In test [6], B8 came in with a Kd of 607 nM and an off-rate (koff) of 0.0028 s⁻¹.
